From patent publication US20100041068A1, “DEEPLY QUENCHED ENZYME SENSORS AND BINDING SENSORS” (priority 2006, published 2010)
Non-standard residues stand in square brackets, D forms with d. Primed or numbered codes have the meaning given here. No end group written: not given here. *: point of attachment. Acetyl(1-pyrenyl) = O=C(Cc1ccc2ccc3cccc4ccc1c2c34)*; Aoc′ = aminooctanoic acid linker; pS = N[C@@H](COP(=O)(O)O)C(=O)O; Abu = CC[C@H](N)C(=O)O; AEEA = NCCOCCOCC(=O)O; Ava = NCCCCC(=O)O; βAla = NCCC(=O)O

T1: 14-3-3τ (phospho-Ser binding domain) (UniProt P27348 1-245)
T1 sequence (looked up): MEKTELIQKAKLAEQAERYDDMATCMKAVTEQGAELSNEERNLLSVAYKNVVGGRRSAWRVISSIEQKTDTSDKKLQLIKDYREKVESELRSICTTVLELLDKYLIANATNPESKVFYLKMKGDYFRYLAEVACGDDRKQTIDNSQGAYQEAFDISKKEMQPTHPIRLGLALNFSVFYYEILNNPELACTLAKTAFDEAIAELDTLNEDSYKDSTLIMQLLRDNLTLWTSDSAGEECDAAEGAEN


What was measured:
[1] = molecular target: peptide P2; assay: Apparent KD of lead quencher dyes with peptide P2 (quenching of pyrene fluorescence); assay type: binding; conditions: 5 μM pyrene-labeled P2 peptide, dye 0.5-500 μM, 100 mM Tris HCl pH 75, inner filter corrected
Procedure: KD values were acquired for the set of the ten lead quenchers with peptide P2, in order to obtain a target range for the quencher:peptide ratios to be employed in the subsequent assays (vide infra). These apparent KD values were determined using the quenching of pyrene fluorescence as a barometer of peptide/quencher complex stability. […] An inner filter effect (at high dye concentrations) was corrected as previously described^8.
Acquisition of Apparent KD Values for Lead Quencher Dyes with Peptide P2 (FIG. 2).

[2] = molecular target: peptide P5; assay: Apparent KD of lead quencher/peptide pair, Rose Bengal with peptide P5; assay type: binding
[3] = molecular target: phosphorylated P5 peptide AcDap(Pyr)RTGRRFS(PO3^2−)YP-amide; assay: Apparent KD of Rose Bengal with phosphorylated P5 peptide; assay type: binding
[4] = molecular target: T2, cAMP-dependent protein kinase (PKA) (Mus musculus, UniProt P05132); assay: Control: phosphorylation-induced change in fluorescence of pyrene-labeled peptides in the absence of quenching dye; assay type: biochemical, murine; set-up: made in house; conditions: 5 μM peptide, 10 nM PKA, 10 μM 14-3-3τ, 1 mM ATP
Procedure: 2 Identification of the lead pyrene-peptide/quencher pair. The eleven pyrene-substituted peptides (P1-P11 at 5 μM) were incubated with a 5-, 10-, 25-, and 50-fold molar excess of each of the ten lead quenchers in the presence of PKA, ATP, and the phospho-Ser binding domain 14-3-3τ. Several control experiments were performed, including conducting the assay in the absence of quenching agent. Under the latter conditions, only small enhancements in fluorescence (0-64%) were observed (Supporting Information). […] Consequently, the background was subtracted from all readings to establish a baseline upon which changes in fluorescence intensity could be quantified (Supporting Information).
Screening of Lead Quenching Dyes 1-10 with […]. […] The concentrations per well were: 10 nM PKA, 5 μM peptide, 10 μM 14-3-3τ, 1 mM ATP, 5 mM MgCl2, 2 mM DTT, and 25 μM, 50 μM, […] each of 10 different lead dyes in 50 mM Tris at pH 7.5 buffer. The HTS 7000 Bio Assay Reader was set in kinetic mode to monitor the progress of reaction (340 nm excitation filter, […] emission filter, 100 μs and 5 flashes).

[5] = molecular target: T2, cAMP-dependent protein kinase (PKA); assay: PKA inhibitor IC50, standard radioactive ATP method; assay type: biochemical
[6] = molecular target: T2, cAMP-dependent protein kinase (PKA); assay: PKA inhibitor IC50, Deep Quench method (Ponceau S/peptide P2, 14-3-3τ); assay type: biochemical, murine; set-up: made in house; conditions: [ATP]=1 mM, 1 μM P2, 60 μM Ponceau S, 10 nM PKA
Procedure: This step was used to adjust for inter-assay variability and to verify that no significant drop in enzyme activity occurs over the course of the determinations. Subsequently, inhibitor was added at different concentrations. […] Fractional velocities (v/v0) were plotted against inhibitor concentration [I] and fit using the Sigma Plot version 8.02 software's four-parameter logistic nonlinear regression analysis.

[7] = molecular target: 14-3-3τ (phospho-Ser binding domain) (UniProt P27348); assay: cell-based or functional assay
[8] = molecular target: T1, 14-3-3τ (phospho-Ser binding domain); assay: cell-based or functional assay

Kd [1] [µM] | Molecule | % Fluorescence Enhancement [4] [%] | also measured
2.8 ± 0.8 | Cc1cc(-c2ccc(/N=N/c3ccc4c(S(=O)(=O)O)cc(S(=O)(=O)O)c(N)c4c3O)c(C)c2)ccc1/N=N/c1ccc2c(S(=O)(=O)O)cc(S(=O)(=O)O)c(N)c2c1O [Peptide D3, Evans Blue] |  | 
14.3 ± 3.3 | O=[N+]([O-])c1ccc2c(N=Nc3ccc4ccccc4c3O)c(O)cc(S(=O)(=O)O)c2c1 [Peptide D18, Eriochrome Black T] |  | 
11.2 ± 2.7 | O=S(=O)(O)c1ccc(/N=N/c2ccc(/N=N/c3c(O)c(S(=O)(=O)O)cc4cc(S(=O)(=O)O)ccc34)c(S(=O)(=O)O)c2)cc1 [Peptide D42, Ponceau S] |  | 
7.5 ± 1.6 | O=C(O)c1c(Cl)c(Cl)c(Cl)c(Cl)c1-c1c2cc(I)c(=O)c(I)c-2oc2c(I)c(O)c(I)cc12 [Peptide D43, Rose Bengal] |  | Kd ([2]; Rose Bengal with unphosphorylated AcDap(Pyr)RTGRRFSYP-amide (P5)): 0.4 ± 0.03 µM; Kd ([2]; Rose Bengal with unphosphorylated peptide P5): 0.4 ± 0.03 µM; Kd [3]: 0.21 ± 0.04 µM
15 ± 2.1 | O=C(O)c1nn(-c2ccc(S(=O)(=O)O)cc2)c(O)c1N=Nc1ccc(S(=O)(=O)O)cc1 [Peptide D47, Tartrazine] |  | 
11.9 ± 3.6 | Cc1cc(-c2ccc(/N=N/c3c(S(=O)(=O)O)cc4cc(S(=O)(=O)O)cc(N)c4c3O)c(C)c2)ccc1/N=N/c1c(S(=O)(=O)O)cc2cc(S(=O)(=O)O)cc(N)c2c1O [Peptide D48, Trypan Blue] |  | 
 | Ac-Gly-Arg-Dap(Pyr)-Gly-Arg-Arg-Phe-Ser-Tyr-Pro-amide [Peptide P4] | 40 | 
 | Ac-Gly-Arg-Thr-Dap(Pyr)-Arg-Arg-Phe-Ser-Tyr-Pro-amide [Peptide P3] | 19 | 
 | Ac-Gly-Arg-Thr-Gly-Arg-Arg-Phe-Ser-Dap(Pyr)-Pro-amide [Peptide P1] | 0 | 
 | GRTGRRNAI-NH2 (C-terminus assumed) [PKI 14-22] |  | IC50 [5]: 1.6 ± 0.2 µM; IC50 [6]: 1.1 ± 0.1 µM
 | Pyr-Abu-Gly-Arg-Thr-Gly-Arg-Arg-Phe-Ser-Tyr-Pro-amide ({Acetyl(1-pyrenyl)}-[Abu]GRTGRRFSYP-NH2; SMILES CC[C@H](NC(=O)Cc1ccc2ccc3cccc4ccc1c2c34)C(=O)NCC(=O)N[C@@H](CCCNC(=N)N)C(=O)N[C@H](C(=O)NCC(=O)N[C@@H](CCCNC(=N)N)C(=O)N[C@@H](CCCNC(=N)N)C(=O)N[C@@H](Cc1ccccc1)C(=O)N[C@@H](CO)C(=O)N[C@@H](Cc1ccc(O)cc1)C(=O)N1CCC[C@H]1C(N)=O)[C@@H](C)O) [Peptide P7] | 47 | 
 | Pyr-Aoc-Gly-Arg-Thr-Gly-Arg-Arg-Phe-Ser-Tyr-Pro-amide ({Acetyl(1-pyrenyl)-Aoc′}-GRTGRRFSYP-NH2) [Peptide P10] | 39 | 
 | Pyr-Ava-Gly-Arg-Thr-Gly-Arg-Arg-Phe-Ser-Tyr-Pro-amide ({Acetyl(1-pyrenyl)-Ava}-GRTGRRFSYP-NH2; SMILES C[C@@H](O)[C@H](NC(=O)[C@H](CCCNC(=N)N)NC(=O)CNC(=O)CCCCNC(=O)Cc1ccc2ccc3cccc4ccc1c2c34)C(=O)NCC(=O)N[C@@H](CCCNC(=N)N)C(=O)N[C@@H](CCCNC(=N)N)C(=O)N[C@@H](Cc1ccccc1)C(=O)N[C@@H](CO)C(=O)N[C@@H](Cc1ccc(O)cc1)C(=O)N1CCC[C@H]1C(N)=O) [Peptide P8] | 31 | 
 | Pyr-BAla-Gly-Arg-Thr-Gly-Arg-Arg-Phe-Ser-Tyr-Pro-amide ({Acetyl(1-pyrenyl)}-[βAla]GRTGRRFSYP-NH2; SMILES C[C@@H](O)[C@H](NC(=O)[C@H](CCCNC(=N)N)NC(=O)CNC(=O)CCNC(=O)Cc1ccc2ccc3cccc4ccc1c2c34)C(=O)NCC(=O)N[C@@H](CCCNC(=N)N)C(=O)N[C@@H](CCCNC(=N)N)C(=O)N[C@@H](Cc1ccccc1)C(=O)N[C@@H](CO)C(=O)N[C@@H](Cc1ccc(O)cc1)C(=O)N1CCC[C@H]1C(N)=O) [Peptide P6] | 49 | 
 | Pyr-miniPEG™-Gly-Arg-Thr-Gly-Arg-Arg-Phe-Ser-Tyr-Pro-amide ({Acetyl(1-pyrenyl)-AEEA}-GRTGRRFSYP-NH2; SMILES C[C@@H](O)[C@H](NC(=O)[C@H](CCCNC(=N)N)NC(=O)CNC(=O)COCCOCCNC(=O)Cc1ccc2ccc3cccc4ccc1c2c34)C(=O)NCC(=O)N[C@@H](CCCNC(=N)N)C(=O)N[C@@H](CCCNC(=N)N)C(=O)N[C@@H](Cc1ccccc1)C(=O)N[C@@H](CO)C(=O)N[C@@H](Cc1ccc(O)cc1)C(=O)N1CCC[C@H]1C(N)=O) [Peptide P11] | 38 | 
 | phosphorylated peptide P2, Ac-GRTGRRDap(Pyr)SYP-amide after phosphorylation of Ser by PKA |  | % Fluorescence Enhancement (phosphorylation-induced, PKA + ATP + 14-3-3τ, no quenching dye) [7]: 51%; Fluorescence Change (phosphorylation-induced fold-change), P2/Ponceau S (1:50), plate reader - bottom read [7]: 7 fold; Fluorescence Change (phosphorylation-induced fold-change), P2/Ponceau S (1:50), plate reader - top read [7]: 15 fold; Fluorescence Change (phosphorylation-induced fold-change), P2/Ponceau S (1:50), spectrofluorimeter [7]: 21 fold
 | phosphorylated peptide P3, Ac-GRTDap(Pyr)RRFSYP-amide after phosphorylation of Ser by PKA |  | % Fluorescence Enhancement (phosphorylation-induced, PKA + ATP + 14-3-3τ, no quenching dye) [7]: 19%
 | phosphorylated peptide P4, Ac-GRDap(Pyr)GRRFSYP-amide after phosphorylation of Ser by PKA |  | % Fluorescence Enhancement (phosphorylation-induced, PKA + ATP + 14-3-3τ, no quenching dye) [7]: 40%
 | phosphorylated peptide P5, AcDap(Pyr)RTGRRFS(PO3^2-)YP-amide |  | % Fluorescence Enhancement (phosphorylation-induced, PKA + ATP + 14-3-3τ, no quenching dye) [7]: 64%; Fluorescence Change (phosphorylation-induced fold-change), P5/Rose Bengal (1:5), plate reader - bottom read [7]: 8 fold; Fluorescence Change (phosphorylation-induced fold-change), P5/Rose Bengal (1:5), plate reader - top read [7]: 30 fold; Fluorescence Change (phosphorylation-induced fold-change), P5/Rose Bengal (1:5), spectrofluorimeter [7]: 64 fold
 | GRTGRRF[pS]YP (also: 7-diethylaminocoumarin-3-carboxylic acid label, site not given here) [coumarin-peptide P12 after phosphorylation] |  | enhancement in fluorescence (16 µM P12, 10 µM 14-3-3, 30 µM Acid Green 27) [8]: 225 fold

Molecule | Kd [1] [µM] | % Fluorescence Enhancement [4] [%] | also measured
Nc1ccc(N=Nc2ccc(-c3ccc(N=Nc4c(S(=O)(=O)O)cc5cc(S(=O)(=O)O)c(N=Nc6ccccc6)c(O)c5c4N)cc3)cc2)c(N)c1 [Peptide D34, Chlorazol Black E] | 7.7 ± 1.5 |  | 
Reactive Blue 2 [Peptide D6] | 19.6 ± 3.4 |  | 
